Experimental data reported in patent US20230250148A1 (published 2023).
Changes are numbered by the printed parent chain. Like-named read-outs stand apart in the source and are kept apart here. Blank lines part the entries; values can stand above or below the binder they belong to.

Tests used:
[1] = target: T1, biotinylated recombinant human Fc(gamma)RI (human, UniProt P12314 16-288, biotinylated, site not stated); assay: ELISA, fusion protein coated, biotinylated rhFc(gamma)RI in solution
T1 construct: Bought reagent; construct not described; also called rhFc(gamma)RI; Fc(gamma) receptor I
T1 sequence (P12314 16-288 limits assumed): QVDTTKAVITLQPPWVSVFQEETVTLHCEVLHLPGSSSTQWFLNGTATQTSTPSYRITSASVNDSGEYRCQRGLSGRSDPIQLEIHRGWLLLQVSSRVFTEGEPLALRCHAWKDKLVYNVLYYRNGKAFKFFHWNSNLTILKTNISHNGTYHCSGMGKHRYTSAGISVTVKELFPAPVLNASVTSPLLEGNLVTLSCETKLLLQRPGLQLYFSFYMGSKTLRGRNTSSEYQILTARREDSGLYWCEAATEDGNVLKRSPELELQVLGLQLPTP
Description: (§1) The binding of insulin-Fc fusion proteins to the Fc(gamma)RI at pH 7.4 is conducted using an ELISA assay as follows using human Fc(gamma)RI (i.e., rhFc(gamma)RI). Insulin-Fc fusion proteins are diluted to 10 µg/mL in sodium bicarbonate buffer at pH 9.6 and coated on Maxisorp (Nunc) microtiter plates overnight at 4° C., after which the microplate strips are washed 5 times with PBST (PBS/0.05% Tween-20) buffer and blocked with Superblock blocking reagent (ThermoFisher). Serial dilutions of biotinylated rhFc(gamma)RI (recombinant human Fc(gamma)RI; R&D Systems) are prepared in PBST/10% Superblock buffer from 3000 ng/mL to 4.1 ng/mL and loaded at 100 µL/well onto the microplate strips coated with insulin-Fc fusion protein. The microtiter plate is incubated for 1 hour at room temperature after which time the microplate strips are washed 5 times with PBST and then loaded with 100 µL/well of streptavidin-HRP diluted 1:10000 in PBST/10% Superblock buffer. After incubating for 45 min, the microplate strips are washed again 5 times with PBST. TMB is added to reveal the bound Fc(gamma)RI proteins and is stopped with ELISA stop reagent (Boston Bioproducts). The plate is read in an ELISA plate reader at 450 nm, and the OD450 values (proportional to the binding of rhFc(gamma)RI to insulin-Fc protein) are plotted against log concentrations of rhFc(gamma)RI added to each well to generate binding curves using GraphPad Prism software. For groupings of compounds with somewhat similar curves, the OD450 at one of the higher concentrations, for instance at rhFc(gamma)RI concentrations of 3000 ng/mL, can be used to identify differences between coated insulin-Fc fusion protein compounds. […]

[2] = target: T2, human insulin receptor (IR) on human IM-9 cells (human, UniProt P06213 28-1382); assay: competition with biotinylated RHI on IM-9 cells, flow cytometry, 4 C
T2 construct: whole, on cells; also called human IR
T2 sequence (P06213 28-1382): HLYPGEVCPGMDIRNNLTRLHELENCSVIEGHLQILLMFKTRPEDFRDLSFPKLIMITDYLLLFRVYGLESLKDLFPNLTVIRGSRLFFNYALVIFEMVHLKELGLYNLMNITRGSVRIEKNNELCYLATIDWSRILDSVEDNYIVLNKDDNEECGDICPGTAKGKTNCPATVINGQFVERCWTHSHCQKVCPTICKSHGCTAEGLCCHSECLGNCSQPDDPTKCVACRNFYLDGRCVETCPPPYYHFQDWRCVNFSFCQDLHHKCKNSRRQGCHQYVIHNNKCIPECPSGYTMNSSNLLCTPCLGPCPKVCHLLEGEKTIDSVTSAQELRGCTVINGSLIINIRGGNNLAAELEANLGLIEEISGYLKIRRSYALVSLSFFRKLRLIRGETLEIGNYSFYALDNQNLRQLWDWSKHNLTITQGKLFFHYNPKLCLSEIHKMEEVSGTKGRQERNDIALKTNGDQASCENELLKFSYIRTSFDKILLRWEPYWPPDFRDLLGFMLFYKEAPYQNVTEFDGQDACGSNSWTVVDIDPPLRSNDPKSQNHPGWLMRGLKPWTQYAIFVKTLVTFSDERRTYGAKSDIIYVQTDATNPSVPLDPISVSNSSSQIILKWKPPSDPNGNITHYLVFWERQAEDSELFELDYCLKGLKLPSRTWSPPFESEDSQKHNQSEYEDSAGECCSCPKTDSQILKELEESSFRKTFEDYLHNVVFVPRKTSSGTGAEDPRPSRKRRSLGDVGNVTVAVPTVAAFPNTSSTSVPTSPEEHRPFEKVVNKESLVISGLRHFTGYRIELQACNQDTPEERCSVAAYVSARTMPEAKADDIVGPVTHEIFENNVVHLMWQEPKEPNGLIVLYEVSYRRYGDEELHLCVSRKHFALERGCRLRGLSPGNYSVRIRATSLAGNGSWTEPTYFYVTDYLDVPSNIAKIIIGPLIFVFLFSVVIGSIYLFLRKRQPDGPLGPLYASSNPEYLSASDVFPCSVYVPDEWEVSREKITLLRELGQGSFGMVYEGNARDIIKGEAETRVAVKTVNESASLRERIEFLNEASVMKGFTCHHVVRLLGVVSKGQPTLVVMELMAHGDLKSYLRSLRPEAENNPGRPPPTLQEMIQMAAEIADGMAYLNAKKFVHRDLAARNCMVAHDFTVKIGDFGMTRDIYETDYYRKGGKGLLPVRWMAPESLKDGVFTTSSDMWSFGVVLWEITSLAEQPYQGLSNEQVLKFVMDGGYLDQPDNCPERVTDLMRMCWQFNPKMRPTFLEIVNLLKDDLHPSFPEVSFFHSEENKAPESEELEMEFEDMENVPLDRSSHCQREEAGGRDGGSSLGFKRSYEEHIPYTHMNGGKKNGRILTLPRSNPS
Description: (§2) 40 µL of an IM-9 cell suspension (8×10⁶ cells/mL) was then added to each well by multichannel pipette, mixed again gently and incubated on ice for 30 min to allow competitive binding on the IR on IM-9 cells. Cells were then washed twice with 275µL of ice-cold FACS wash buffer (HBSS/2mM EDTA/0.1% Na-azide + 0.5% horse serum) by centrifuging the V-bottom plate at 3000 rpm for 3 min and aspirating the supernatant. Cells were then resuspended in 40µL of FACS staining medium containing 1:100 diluted Streptavidin-PE (Life Technologies) for 20 min on ice. Cells were then washed once with 275 µL of ice-cold FACS buffer and finally fixed with 3% paraformaldehyde for 10 min at room temp. Cells were then washed once with 275 µL of ice-cold FACS buffer and resuspended in 250µl of FACS buffer for analysis.
In vitro insulin receptor binding for the insulin-Fc fusion proteins of SEQ ID NO: 36 and SEQ ID NO: 38 was tested according to the procedure of Example 12.

[3] = target: T1, biotinylated recombinant human …; assay: ELISA, fusion protein coated, biotinylated rhFc(gamma)RI at 3000 ng/mL
Description: as §1
Finally, select compounds were tested for their likelihood to interact with the immune system by measuring their Fc(gamma) receptor binding activity according to the procedure of Example 15.

[4] = target: T1, biotinylated recombinant human …; assay: ELISA, fusion protein coated, biotinylated rhFc(gamma)RI in solution; remark: listed apart in the source
[5] = target: T2, human insulin receptor (IR) on human …; assay: competition with biotinylated RHI on IM-9 cells, flow cytometry, 4 C; remark: listed apart in the source
Description: as §2
The two insulin-Fc fusion proteins were manufactured in HEK293 cells according to Example 1 and purified using a Protein A column according to Example 4. Their structures were confirmed according to Example 6 by non-reducing and reducing CE-SDS, and the sequences were further identified by LC-MS with glycan removal according to Example 8. Their %homodimer content was measured by size-exclusion chromatography according to Example 10, and their insulin receptor binding affinities were measured according to Example 12.

OD450nm [1]: 0.386
OD450nm minus assay background [1]: 0.323
ratio to SEQ ID NO: 36 [1]: 1
IC50 [2]: 0.028 µM
OD450nm [3]: 0.428
OD450nm minus assay background [3]: 0.371
ratio to SEQ ID NO: 36 [3]: 1
B1: insulin-Fc fusion protein of SEQ ID NO: 36 (Fc fusion)
chain: FVNQHLCGSDLVEALALVCGERGFFYTDPTGGGPRRGIVEQCCHSICSLYQLENYCNGGGGAGGGGDCPKCPAPEMLGGPSVFIFPPKPKDTLLIARTPEVTCVVVDLDPEDPEVQISWFVDGKQMQTAKTQPREEQFNGTYRVVSVLPIGHQDWLKGKQFTCKVNNKALPSPIERTISKARGQAHQPSVYVLPPSREELSKNTVSLTCLIKDFFPPDIDVEWQSNGQQEPESKYRTTPPQLDEDGSYFLYSKLSVDKSRWQRGDTFICAVMHEALHNHYTQESLSHSPG
modifications: native N-glycosylation site cNg-NB139
notes: HEK293 homodimer

fold Fc(gamma) receptor binding activity against SEQ ID NO: 40 and SEQ ID NO: 42 [4]: ~2 fold
OD450nm [1]: 0.204
OD450nm minus assay background [1]: 0.141
ratio to SEQ ID NO: 36 [1]: 0.44
B2: insulin-Fc fusion protein of SEQ ID NO: 41 (Fc fusion)
chain: B1 chain with N139D
notes: non-glycosylated

IC50 [2]: 2.73 µM
B3: insulin-Fc fusion protein of SEQ ID NO: 31 (Fc fusion)
chain: FVNQHLCGSDLVEALALVCGERGFFYTDPTGGGPRRGIVEQCCHSICSLYQLENYCNGGGGAGGGGRCTDTPPCPVPEPLGGPSVLIFPPKPKDILRITRTPEVTCVVLDLGREDPEVQISWFVDGKEVHTAKTQSREQQFNGTYRVVSVLPIEHQDWLTGKEFKCRVNHIDLPSPIERTISKARGRAHKPSVYVLPPSPKELSSSDTVSITCLIKDFYPPDIDVEWQSNGQQEPERKHRMTPPQLDEDGSYFLYSKLSVDKSRWQQGDPFTCAVMHETLQNHYTDLSLSHSPG
notes: HEK293; only 24% homodimer

IC50 [5]: 1.28 µM
B4: insulin-Fc fusion protein of SEQ ID NO: 53 (Fc fusion)
chain: FVNQHLCGSHLVEALALVCGERGFFYTDPTGGGPRRGIVEQCCTSICSLYQLENYCGGGGGQGGGGQGGGGQGGGGGDCPKCPAPEMLGGPSVFIFPPKPKDTLLIARTPEVTCVVVDLDPEDPEVQISWFVDGKQMQTAKTQPREEQFSGTYRVVSVLPIGHQDWLKGKQFTCKVNNKALPSPIERTISKARGQAHQPSVYVLPPSREELSKNTVSLTCLIKDFFPPDIDVEWQSNGQQEPESKYRTTPPQLDEDGSYFLYSKLSVDKSRWQRGDTFICAVMHEALHNHYTQESLSHSPG

IC50 [5]: > 5 µM
B5: insulin-Fc fusion protein of SEQ ID NO: 48 (Fc fusion)
chain: FVNQHLCGSHLVEALALVCGERGFFYTDPTGGGPRRGIVEQCCTSICSLYQLENYCGGGGAGGGGDCPKCPAPEMLGGPSVFIFPPKPKDTLLIARTPEVTCVVVDLDPEDPEVQISWFVDGKQMQTAKTQPREEQFSGTYRVVSVLPIGHQDWLKGKQFTCKVNNKALPSPIERTISKARGQAHQPSVYVLPPSREELSKNTVSLTCLIKDFFPPDIDVEWQSNGQQEPESKYRTTPPQLDEDGSYFLYSKLSVDKSRWQRGDTFICAVMHEALHNHYTQESLSHSPG
